Measured values reported in the DeepSol protein solubility set.

Assay: soluble on expression in E. coli; label from the status in PepcDB or PDB records

Question: Which “soluble on expression in E. coli” value does the source give for “MGYLNNVTGYREDLLANRAIVKHGNFALLTPDGLVKNIIPGFENCDATILSTPKLGASFVDYLVTLHQNGGNQQGFGGEGIETFLYVISGNITAKAEGKTFALSEGGYLYCPPGSLMTFVNAQAEDSQIFLYKRRYVPVEGYAPWLVSGNASELERIHYEGMDDVILLDFLPKELGFDMNMHILSFAPGASHGYIETHVQEHGAYILSGQGVYNLDNNWIPVKKGDYIFMGAYSLQAGYGVGRGEAFSYIYSKDCNRDVEILEHHHHHH” here?
Answer: not soluble

Question: With “MGYNETIYHKPFIKINMPDVLGKPDATQIPDDVWLDILINYLQPQDIVNLSEINNRLSRLFKTQHTQSEQLNQKKTLGILKVFAGYSSTFLFARLNGKQRLFKTRNWSAADSDNINPILMPISLPENISVIESIQSTYKHTVVVGRDKHDQIIVATNKINQDYAKQETSHNQLIPLPLRDINISLVSAGNEEDYILNPIFSFPATQQGNCILNCIK” as the sequence, how does the “soluble on expression in E. coli” value read?
Answer: not soluble

Question: Which “soluble on expression in E. coli” value does the source give for “MGYRIEMATRNPFDIDHKSKYLREAALEANLSHPETTPTMLTCPIDSGFLKDPVITPEGFVYNKSSILKWLETKKEDPQSRKPLTAKDLQPFPELLIIVNRFVETQTNYEKLKNRLVQNARVAARQKEYTEIPDIFLCPISKTLIKTPVITAQGKVYDQEALSNFLIATGNKDETGKKLSIDDVVVFDELYQQIKVYNFYRKREMQKNQIQPSVSSGFGFFSLNFLTSWLWGTEEKKEKTSSDMTY” here?
Answer: not soluble

Question: Which “soluble on expression in E. coli” value does the source give for “MGYRNLPPHLNPLAPLALDDPPGWLTSFKLRRLTADQCASLLAEANRRRLIASRPVADSEGSCPLRNVVRVANFGSVQLSSSFLASCPLALSSALYIEQQAKPLTRQLMASDLRQIDHLGSFACRNIYHRQQARRSEHATADALDVSGFRLADGRRVSVLQGWRSETSRPWLAALLSSSCHYFGNALGPEYNAAHANHFHFGMRGQGFCFLEHHHHHH” here?
Answer: not soluble

Question: For “MHCLSDFIPWNQVSVTGDFVGHIQELIRTEVLPYQWEALNDQIAGAEPSHCLDNFRAAAEKKGHIQFHGQPFQDSDIYKWIEAAAYTLAWHPDSDLEAKADQAIELICGAQQPDGYLNTYFILTGAQRWTHLLDGHELYCAGHLMEAAVAYYHATGKDKLLKAAQKLADHIADVFGTSPGKIPGYPGHPEVELALIRLFEATGNIKYQQLAQYFICQRGASPSIFRKEADQFGWDWADSPFQFQFYQAGKPILEQTELEGHAVRALYLCCGIADVAARTQDAALLETCRRLWEDLTQTKLYITGGAGSSVYGEAFTFAYDLPNDTAYAETCAAVAVCFFAQRMMKISPSGAYGDVLEQALYNGVLSGMALDGKSFFYVNPLEVVPEACQKDQRKKHVKPIRQKWFACACCPPNLARLFASIGGYLHFIRAETLYTNLYVTSTSEFTFQGLPIKLHMDSAYPFDEKIHISLSLPRPMEFSYAVRIPAWCADYHVLINGKICAGTLKDGFLYLHRCWRDGDEVELTLSMPVRVVRANSLVRENIGKSAICRGPIVYCMEQTDNGPQLHRNRICGKPSFTISSGEENLKGLPCISCSGEYLLPDGTQLYTSAKESFQPKTLRFIPYFAWCNRSPGEMAVWVRHDTILEHHHHHH”, which “soluble on expression in E. coli” value is on record?
Answer: soluble

Question: With “MHHHHHHGSKFKGSTFGRLVRIEFDILRLGELKIDDLSEFDTSEIKLEIKATSSGIKLVGVWEGDIEKVGEAIKKALEESIKLRERILRKMKSKVERIRKALLEMGFREEQFGYGEAVKFVKKVGDFEIAIIVSSREDIVRVEVYGEGNRKIIAPELEAFFESVDIEEIEVYDIEEEGREEKVVINLELPKSDEKPEKRITEAVKILENILMA” as the sequence, how does the “soluble on expression in E. coli” value read?
Answer: soluble

Question: With “MHHHHHHIEGRHMLRPGDCEVCISYLGRFYQDLKDRDVTFSPATIEEELIKFCREARGKENRLCYYIGATDDAATKIINEVSKPLAHHIPVEKICEKLKKKDSQICELKYDKQIDLSTVDLKKLRVKELKKILDDWGEMCKGCAEKSDYIRKINELMPKYAPKAASARTDL” as the sequence, how does the “soluble on expression in E. coli” value read?
Answer: soluble

Question: For “MHHHHHHMELSLASITVPLESIKPSNILPVTVYDQHGFRILFHFARDPLPGRSDVLVVVVSMLSTAPQPIRNIVFQSAVPKVMKVKLQPPSGTELPAFNPIVHPSAITQVLLLANPQKEKVRLRYKLTFTMGDQTYNEMGDVDQFPPPETWGSL”, which “soluble on expression in E. coli” value is on record?
Answer: soluble

Question: Which “soluble on expression in E. coli” value does the source give for “MHHHHHHMKNVIFEDEEKSKMLARLLKSSHPEDLRAANKLIKEMVQEDQKRMEKISKRVNAIEEVNNNVKLLTEMVMSHSQGGAAAGSSEDLMKELYQRCERMRPTLFRLASDTEDNDEALAEILQANDNLTQVINLYKQLVRGEEVNGDATAGSIPG” here?
Answer: soluble

Question: For “MHHHHHHMNSRILSTGSYLPSHIRTNADLEKMVDTSDEWIVTRSGIRERRIAAEDETVATMGFEAAKNAIEAAQINPQDIELIIVATTSHSHAYPSAACQVQGLLNIDDAISFDLAAACTGFVYALSVADQFIRAGKVKKALVIGSDLNSRKLDETDRSTVVLFGDGAGAVILEASEQEGIISTHLHASADKNNALVLAQPERGIEKSGYIEMQGNETFKLAVRELSNVVEETLLANNLDKKDLDWLVPHQANLRIITATAKKLEMDMSQVVVTLDKYANNSAATVPVALDEAIRDGRIQRGQLLLLEAFGGGWTWGSALVRF”, which “soluble on expression in E. coli” value is on record?
Answer: soluble

Question: Which “soluble on expression in E. coli” value does the source give for “MHHHHHHSSGVDLGTENLYFQSMASESETLNPSARIMTFYPTMEEFRNFSRYIAYIESQGAHRAGLAKVVPPKEWKPRASYDDIDDLVIPAPIQQLVTGQSGLFTQYNIQKKAMTVREFRKIANSDKYCTPRYSEFEELERKYWKNLTFNPPIYGADVNGTLYEKHVDEWNIGRLRTILDLVEKESGITIEGVNTPYLYFGMWKTSFAWHTEDMDLYSINYLHFGEPKSWYSVPPEHGKRLERLAKGFFPGSAQSCEAFLRHKMTLISPLMLKKYGIPFDKVTQEAGEFMITFPYGYHAGFNHGFNCAESTNFATRRWIEYGKQAVLCSCRKDMVKISMDVFVRKFQPERYKLWKAGKDNTVIDHTLPTPEAAEFLKESEL” here?
Answer: soluble

Question: With “MHHHHHHSSGVDLGTENLYFQSMGQCSVLLFPGQGSQVVGMGRGLLNYPRVRELYAAARRVLGYDLLELSLHGPQETLDRTVHCQPAIFVASLAAVEKLHHLQPSVIENCVAAAGFSVGEFAALVFAGAMEFAEGLYAVKIRAEAMQEASEAVPSGMLSVLGQPQSKFNFACLEAREHCKSLGIENPVCEVSNYLFPDCRVISGHQEALRFLQKNSSKFHFRRTRMLPVSGAFHTRLMEPAVEPLTQALKAVDIKKPLVSVYSNVHGHRYRHPGHIHKLLAQQLVSPVKWEQTMHAIYERKKGRGFPQTFEVGPGRQLGAILKSCNMQAWKSYSAVDVL” as the sequence, how does the “soluble on expression in E. coli” value read?
Answer: soluble

Question: With “MHHHHHHSSGVDLGTENLYFQSMPRARPGGNRVTVVLGAQWGDEGKGKVVDLLAQDADIVCRCQGGNNAGHTVVVDSVEYDFHLLPSGIINPNVTAFIGNGVVIHLPGLFEEAEKNVQKGKGLEGWEKRLIISDRAHIVFDFHQAADGIQEQQRQEQAGKNLGTTKKGIGPVYSSKAARSGLRMCDLVSDFDGFSERFKVLANQYKSIYPTLEIDIEGELQKLKGYMEKIKPMVRDGVYFLYEALHGPPKKILVEGANAALLDIDFGTYPFVTSSNCTVGGVCTGLGMPPQNVGEVYGVVKAYTTRVGIGAFPTEQDNEIGELLQTRGREFGVTTGRKRRCGWLDLVLLKYAHMINGFTALALTKLDILDMFTEIKVGVAYKLDGEIIPHIPANQEVLNKVEVQYKTLPGWNTDISNARAFKELPVNAQNYVRFIEDELQIPVKWIGVGKSRESMIQLF” as the sequence, how does the “soluble on expression in E. coli” value read?
Answer: soluble

Question: For “MHIDNIENLSDREFDYIVVGGGSAGAAVAARLSEDPAVSVALVEAGPDDRGVPEVLQLDRWMELLESGYDWDYPIEPQENGNSFMRHARAKVMGGCSSHNSCIAFWAPREDLDEWEAKYGATGWNAEAAWPLYKRLETNEDAGPDAPHHGDSGPVHLMNVPPKDPTGVALLDACEQAGIPRAKFNTGTTVVNGANFFQINRRADGTRSSSSVSYIHPIVEQENFTLLTGLRARQLVFDADRRCTGVDIVDSAFGHTHRLTARNEVVLSTGAIDTPKLLMLSGIGPAAHLAEHGIEVLVDSPGVGEHLQDHPEGVVQFEAKQPMVAESTQWWEIGIFTPTEDGLDRPDLMMHYGSVPFDMNTLRHGYPTTENGFSLTPNVTHARSRGTVRLRSRDFRDKPMVDPRYFTDPEGHDMRVMVAGIRKAREIAAQPAMAEWTGRELSPGVEAQTDEELQDYIRKTHNTAYHPVGTVRMGAVEDEMSPLDPELRVKGVTGLRVADASVMPEHVTVNPNITVMMIGERCADLIRSARAGETTTADAELSAALA”, which “soluble on expression in E. coli” value is on record?
Answer: soluble

Question: For “MHIKPIIQGVVARSAHPYGCEQAVLQQIQYVKQANPIKSGPKRVLILGASSGFGLAARIALTFGGAQADTIGVSFERAPSETQTGSAGYYNNLFFKQHAEQAGRIAVNLEGDVFSVDMREQVIEAIETYFEGEVDLIIYSIASGMRRKPRSEKADPEFWRSAIKPIGEAVSGATLLLENDTWIETTLQPASEEEIEGTLRVMGGDDWENWIDTLINAESLAEGCKTIAFSYMGPDVTHPIYLDGTLGRAKIDLHQTSHALNLKLANFDGGAYAVVCKALVTKASVFIPGLSPYLLALYQVMKNKGTHEGCIEQMQRLFSDKLYGHSRIPLDSERLIRMDDWEMNPDTQVQVRERLQQMNASNFQQLGDYAGFKREFMQLNGFEFDQIDYSQSV”, which “soluble on expression in E. coli” value is on record?
Answer: not soluble

Question: Which “soluble on expression in E. coli” value does the source give for “MHIPENLYVVGTMNIADRSLALVDLALRRRFAFVGLEPRLGQVWRDWVVKECAVDPGLVADIERRIAELNDQIAADARLGKQFRIGHSYVTPAHRLEAGDTKKWFLQVVETEIGPLLDEYWFDAPDEAQKAIARLTQGLEHHHHHH” here?
Answer: not soluble

Question: For “MHIQIDGIPIEILRKPIKNLNLRIYPPDGLVKVSVPLKYSEQLIKQQLQEKSKWIRAQCEQIRARSFYREPSLQTGATIPFKGKSYLLIVEEHYGPSQILIKNELIYCYTKPDLTPQQKQNILDRWYRKEMNLVIPRLIQQWEAIMKVKINQWGIKKMKTRWGSCNPRAQRIWLNLNLIKKPLECLEYVLVHEMVHILEASHNKRFYALMTQFMPKWQEYQRILEGTPNASTFARLEHHHHHH”, which “soluble on expression in E. coli” value is on record?
Answer: not soluble

Question: With “MHITNRSHLADRYGKRTSAEFLLHERPILSFPISLAAIPKEARYLSWELIDYDTIPLIGFPFIHWLAANVPVTNEIPEDFSRTALKPTIQGKNSLASPLGKQMIPALATETLPELTERYLGLSPRSGVHTYTLYVYTTKNPLNLKEGFFANELHQALNDQLLAKAKFEFLY” as the sequence, how does the “soluble on expression in E. coli” value read?
Answer: not soluble

Question: For “MHKRATSPLSAARTRRKPHGWKKREDDGVGGRFLSIGECMVELSQAGNGLLRKGFAGDTFNAAWYARACLPQDWSVDYFTALGDDPLSEDMLAFIAEAGIGTEKIRRIKGGTPGLYLINLKDGERTFSYWRNAAAARQLAADADHLRKTVESADVVYFSGITLAILASAHDVDTFLAELRRARAAGKLVVFDPNIRPRLWADRDVMLETISNGARAATLVMPSFDDEASHFGDVSVEATIARYRSLGVENIVVKDGAKGATLDFGGSRSHAPAEKAVDVVDTTSAGDSFNGAFLARYVTGSSPEEAATFAARAAATVIGHHGALISPELLPLVG”, which “soluble on expression in E. coli” value is on record?
Answer: not soluble

Question: Which “soluble on expression in E. coli” value does the source give for “MHKSNNKIRQRIIIKLSGAGLTKENSQPFSNDFFETIINQLKVLKESYQVGIVIGGGNIIRGNNCQEFNIAEYHGHQLGIIATVVNGYFLKAKLDAHNLKSALLSAISCPSLAVQILSQQTIDKAFEENDFVIFSGGTGNPYFSTDTALALRAVQTKAVAILIGKNGVDGVYTADPKKDKNATFLPTLNYDHAIKNDLKIMDITAFTMCKENNLKIIIFNINAENALLDALNKKGRFTIIENNLEHHHHHH” here?
Answer: soluble

Question: For “MHNFIYITAPSLEEAERIAKRLLEKKLAACVNIFPIKSFFWWEGKIEAATEFAMIVKTRSEKFAEVRDEVKAMHSYTTPCICAIPIERGLKEFLDWIDETVE”, which “soluble on expression in E. coli” value is on record?
Answer: soluble

Question: Which “soluble on expression in E. coli” value does the source give for “MHNIYFYKDKNGNEPVFDYMRELTSKKGKDSRIKLNKINDYIELLSQHGTRAGEPYIKHLDAEIWELRPLRDRILFVAWMDGSFVLLHHFMKRTQKTPKREIEQAKRELADLKERGLDNEK” here?
Answer: not soluble
